Laboratory results reported in patent US20090053750A1 (CELL GENESYS, published 2009).

Legend:
[1] = molecular target: T1, class I MHC receptor HLA-A2 on T2 cells (human); assay: T2 cells, anti-HLA-A2 flow cytometry after brefeldin A; Assay #2; 18 hr
T1 construct: detected on the cell surface with a mouse anti-human HLA-A2 monoclonal antibody and goat anti-mouse IgG F(ab')2-FITC; also called HLA-A2 receptor; HLA-A2 class I MHC
Method: (§1) Following overnight incubation, the cells were washed and stained with mouse anti-human HLA-A2 monoclonal antibody for 15 min at 4° C.
(§2) After washing, the cells were incubated with goat anti-mouse IgG (F(ab′)₂)-FITC (Sigma, St. Louis, Mo.) for 15 min at 4° C. The cells were washed and analyzed on a FACSort flow cytometer with CellQuest v2.1 software (Becton-Dickson, San Jose, Calif.). […] Up-regulation of HLA-A2 expression correlates with binding of HLA-A2 by the filamin-B peptides.
(§3) To test the stability of the interaction between the peptides and HLA-A2, fluorescence was monitored for several hours following the addition of brefeldin A to the assay.

[2] = molecular target: T1, class I MHC receptor HLA-A2 on T2 cells; assay: T2 cells, anti-HLA-A2 flow cytometry after brefeldin A; Average; 4 hr
Method: as §1, §2, §3

[3] = molecular target: T1, class I MHC receptor HLA-A2 on T2 cells; assay: T2 cells, anti-HLA-A2 flow cytometry after brefeldin A; Average; 8 hr
Method: as §1, §2, §3

[4] = molecular target: T1, class I MHC receptor HLA-A2 on T2 cells; assay: T2 cells, anti-HLA-A2 flow cytometry after brefeldin A; Assay #1; 4 hr
Method: as §1, §2, §3

[5] = molecular target: T1, class I MHC receptor HLA-A2 on T2 cells; assay: T2 cells, anti-HLA-A2 flow cytometry after brefeldin A; Assay #1; 2 hr
Method: as §1, §2, §3

[6] = molecular target: T1, class I MHC receptor HLA-A2 on T2 cells; assay: T2 cells, anti-HLA-A2 flow cytometry after brefeldin A; Average; 2 hr
Method: as §1, §2, §3

[7] = molecular target: T1, class I MHC receptor HLA-A2 on T2 cells; assay: T2 cells, anti-HLA-A2 flow cytometry after brefeldin A; Average; 6 hr
Method: as §1, §2, §3

[8] = molecular target: T1, class I MHC receptor HLA-A2 on T2 cells; assay: T2 cells, anti-HLA-A2 flow cytometry after brefeldin A; Assay #1; 0 hr
Method: as §1, §2, §3

[9] = molecular target: T1, class I MHC receptor HLA-A2 on T2 cells; assay: T2 cells, anti-HLA-A2 flow cytometry after brefeldin A; Assay #1; 6 hr
Method: as §1, §2, §3

[10] = molecular target: T1, class I MHC receptor HLA-A2 on T2 cells; assay: T2 cells, anti-HLA-A2 flow cytometry after brefeldin A; Assay #1; 8 hr
Method: as §1, §2, §3

[11] = molecular target: T1, class I MHC receptor HLA-A2 on T2 cells; assay: T2 cells pulsed with peptide + b2m, anti-HLA-A2 flow cytometry; Average
Method: as §1, §2

[12] = molecular target: T1, class I MHC receptor HLA-A2 on T2 cells; assay: T2 cells, anti-HLA-A2 flow cytometry after brefeldin A; Assay #2; 8 hr
Method: as §1, §2, §3

[13] = molecular target: T1, class I MHC receptor HLA-A2 on T2 cells; assay: T2 cells, anti-HLA-A2 flow cytometry after brefeldin A; Assay #1; 18 hr
Method: as §1, §2, §3

[14] = molecular target: T1, class I MHC receptor HLA-A2 on T2 cells; assay: T2 cells, anti-HLA-A2 flow cytometry after brefeldin A; Assay #2; 2 hr
Method: as §1, §2, §3

[15] = molecular target: T1, class I MHC receptor HLA-A2 on T2 cells; assay: T2 cells, anti-HLA-A2 flow cytometry after brefeldin A; Average; 18 hr
Method: as §1, §2, §3

[16] = molecular target: T1, class I MHC receptor HLA-A2 on T2 cells; assay: T2 cells, anti-HLA-A2 flow cytometry after brefeldin A; Assay #2; 0 hr
Method: as §1, §2, §3

[17] = molecular target: T1, class I MHC receptor HLA-A2 on T2 cells; assay: T2 cells, anti-HLA-A2 flow cytometry after brefeldin A; Average; 0 hr
Method: as §1, §2, §3

[18] = molecular target: T1, class I MHC receptor HLA-A2 on T2 cells; assay: T2 cells, anti-HLA-A2 flow cytometry after brefeldin A; Assay #2; 6 hr
Method: as §1, §2, §3

[19] = molecular target: T1, class I MHC receptor HLA-A2 on T2 cells; assay: T2 cells, anti-HLA-A2 flow cytometry after brefeldin A; Assay #2; 4 hr
Method: as §1, §2, §3

[20] = molecular target: T1, class I MHC receptor HLA-A2 on T2 cells; assay: T2 cells pulsed with peptide + b2m, anti-HLA-A2 flow cytometry; Assay #2
Method: as §1, §2

[21] = molecular target: T1, class I MHC receptor HLA-A2 on T2 cells; assay: T2 cells pulsed with peptide + b2m, anti-HLA-A2 flow cytometry; Assay #1
Method: as §1, §2

| Binder | fluorescence index [1] | fluorescence index [2] | fluorescence index [3] | fluorescence index [4] | fluorescence index [5] | fluorescence index [6] | fluorescence index [7] | fluorescence index [8] | fluorescence index [9] | fluorescence index [10] | fluorescence index [11] | fluorescence index [12] | fluorescence index [13] | fluorescence index [14] | fluorescence index [15] | fluorescence index [16] | fluorescence index [17] | fluorescence index [18] | fluorescence index [19] | fluorescence index [20] | further results |
| --- | --- | --- | --- | --- | --- | --- | --- | --- | --- | --- | --- | --- | --- | --- | --- | --- | --- | --- | --- | --- | --- |
| GLAPLEVRV [Filamin B peptide #3] | 2.1 F.I. | 3.79 F.I. | 3.45 F.I. | 4.22 F.I. | 4.3 F.I. | 3.82 F.I. | 3.61 F.I. | 4.21 F.I. | 4.27 F.I. | 4.01 F.I. | 3.93 | 2.89 F.I. | 3.1 F.I. | 3.33 F.I. | 2.6 F.I. | 3.64 F.I. | 3.93 F.I. | 2.94 F.I. | 3.35 F.I. | 3.64 | fluorescence index [21]: 4.21 |
| GQGDVMVFV [Filamin B peptide #6] | 1 F.I. | 1.47 F.I. | 1.05 F.I. | 1.65 F.I. | 1.74 F.I. | 1.67 F.I. | 1.12 F.I. | 2.67 F.I. | 1.23 F.I. | 1.09 F.I. | 2.32 | 1 F.I. | 1.1 F.I. | 1.6 F.I. | 1.05 F.I. | 1.96 F.I. | 2.32 F.I. | 1 F.I. | 1.29 F.I. | 1.96 | fluorescence index [21]: 2.67 |
| SLQESGLKV [Filamin B peptide #4] | 1 F.I. | 1.28 F.I. | 1.05 F.I. | 1.43 F.I. | 1.43 F.I. | 1.4 F.I. | 1.09 F.I. | 1.96 F.I. | 1.18 F.I. | 1.09 F.I. | 1.79 | 1 F.I. | 1.1 F.I. | 1.37 F.I. | 1.05 F.I. | 1.61 F.I. | 1.79 F.I. | 1 F.I. | 1.13 F.I. | 1.61 | fluorescence index [21]: 1.96 |
| KLILGLVWT [Filamin B peptide #7] | 1 F.I. | 1.16 F.I. | 1.05 F.I. | 1.22 F.I. | 1.24 F.I. | 1.16 F.I. | 1.05 F.I. | 1.38 F.I. | 1.09 F.I. | 1.09 F.I. | 1.32 | 1 F.I. | 1.25 F.I. | 1.07 F.I. | 1.13 F.I. | 1.25 F.I. | 1.32 F.I. | 1 F.I. | 1.1 F.I. | 1.25 | fluorescence index [21]: 1.38 |
| LILGLVWTL [Filamin B peptide #1] | 1.35 F.I. | 2.67 F.I. | 2.4 F.I. | 3.17 F.I. | 3.17 F.I. | 2.67 F.I. | 2.58 F.I. | 3.46 F.I. | 3.32 F.I. | 3.22 F.I. | 2.82 | 1.57 F.I. | 2.45 F.I. | 2.17 F.I. | 1.9 F.I. | 2.17 F.I. | 2.82 F.I. | 1.83 F.I. | 2.16 F.I. | 2.17 | fluorescence index [21]: 3.46 |
